In this test the target is TRPA1 tagged with V5 and 6x histidine in the C terminus (UniProt Q8BLA8). Put plainly: pull-down; nickel bead (Ni-NTA) pull-down of TRPA1-V5-His from HEK293 cells; IQGAP1 detected with anti-IQGAP1; cells untreated or treated with AITC (400 uM), AITC with HC-030031 (10 uM), AITC in Ca2+-free solution, or forskolin.

The values below come from paper PMC10232262.

Sequence of UniProt Q8BLA8 (Q8BLA8 whole entry): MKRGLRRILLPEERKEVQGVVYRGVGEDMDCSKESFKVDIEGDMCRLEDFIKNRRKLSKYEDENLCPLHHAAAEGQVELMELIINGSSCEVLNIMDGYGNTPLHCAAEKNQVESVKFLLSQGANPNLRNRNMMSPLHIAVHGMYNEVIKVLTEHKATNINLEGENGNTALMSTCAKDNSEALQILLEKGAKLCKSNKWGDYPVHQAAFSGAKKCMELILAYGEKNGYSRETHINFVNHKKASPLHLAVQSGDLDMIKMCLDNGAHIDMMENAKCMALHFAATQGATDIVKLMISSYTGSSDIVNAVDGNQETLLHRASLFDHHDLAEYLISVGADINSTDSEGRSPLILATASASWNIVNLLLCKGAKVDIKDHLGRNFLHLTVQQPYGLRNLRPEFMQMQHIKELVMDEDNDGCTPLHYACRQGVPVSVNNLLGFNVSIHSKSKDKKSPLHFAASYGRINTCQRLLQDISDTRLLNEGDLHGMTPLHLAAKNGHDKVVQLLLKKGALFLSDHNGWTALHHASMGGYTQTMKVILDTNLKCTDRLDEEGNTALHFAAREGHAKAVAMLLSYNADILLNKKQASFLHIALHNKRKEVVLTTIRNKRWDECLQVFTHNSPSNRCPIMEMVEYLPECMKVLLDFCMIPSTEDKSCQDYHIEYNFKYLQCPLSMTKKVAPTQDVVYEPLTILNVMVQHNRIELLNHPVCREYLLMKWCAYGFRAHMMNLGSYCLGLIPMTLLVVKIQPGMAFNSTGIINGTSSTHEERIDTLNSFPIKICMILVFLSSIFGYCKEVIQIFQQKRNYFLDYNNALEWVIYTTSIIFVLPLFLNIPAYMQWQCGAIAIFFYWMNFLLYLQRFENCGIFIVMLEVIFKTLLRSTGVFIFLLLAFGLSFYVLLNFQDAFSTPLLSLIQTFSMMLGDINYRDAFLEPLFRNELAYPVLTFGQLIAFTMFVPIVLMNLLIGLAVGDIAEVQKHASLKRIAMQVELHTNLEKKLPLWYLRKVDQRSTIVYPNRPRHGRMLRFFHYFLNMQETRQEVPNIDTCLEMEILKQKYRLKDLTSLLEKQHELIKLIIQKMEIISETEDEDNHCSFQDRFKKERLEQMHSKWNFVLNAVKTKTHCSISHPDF

“Cdc42 binding region (M1054-K1077) deleted IQGAP1 (from UniProt P46940 1-1657) (natural protein)”: the relative band density (basal, against wild-type IQGAP1 basal = 1.0) (relative to the first band) is 0.53.

Regarding “IQ motif (L700-Q905) deleted IQGAP1 (from UniProt P46940 1-1657) (natural protein)”, the relative band density (basal, against wild-type IQGAP1 basal = 1.0) (relative to the first band) worked out at 1.61.
